Test results from publication PMC5773217, “Xylose donor transport is critical for fungal virulence” (PLoS Pathogens, 2018).

Experiments:
[1] = test system: O=c1ccn([C@@H]2O[C@H](COP(=O)(O)OP(=O)(O)O[C@H]3OC[C@@H](O)[C@H](O)[C@H]3O)[C@@H](O)[C@H]2O)c(=O)[nH]1; assay: cells, lysate or membranes; conditions: antiport, preloaded with 10 mM UMP; 2 min; UDP-Xyl 0-100 μM
[2] = biological target: T1, Gmt2 (Cryptococcus neoformans, UniProt J9VY61); assay: uptake into reconstituted proteoliposomes, LC-MS/MS; type: biochemical; conditions: 37°C
T1 construct: gene CNAG_03426; full coding region, C-terminal His/V5 tag kept, pYES-DEST52 in S. cerevisiae INVSc1, membrane protein reconstituted into proteoliposomes
T1 sequence (J9VY61 entry or part of it): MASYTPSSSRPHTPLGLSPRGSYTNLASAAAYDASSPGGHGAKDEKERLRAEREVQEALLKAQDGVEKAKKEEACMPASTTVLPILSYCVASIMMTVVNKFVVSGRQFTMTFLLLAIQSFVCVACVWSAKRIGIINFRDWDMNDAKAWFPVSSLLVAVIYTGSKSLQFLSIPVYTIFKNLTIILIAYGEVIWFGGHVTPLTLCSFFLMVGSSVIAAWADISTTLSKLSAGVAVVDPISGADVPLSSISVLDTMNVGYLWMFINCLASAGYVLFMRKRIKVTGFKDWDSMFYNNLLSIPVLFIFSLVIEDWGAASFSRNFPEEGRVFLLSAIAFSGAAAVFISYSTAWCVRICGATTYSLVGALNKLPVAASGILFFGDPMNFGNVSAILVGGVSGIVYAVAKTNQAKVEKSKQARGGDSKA

[3] = biological target: T2, Gmt1 (Cryptococcus neoformans, UniProt J9VRU7); assay: as above; type: biochemical; conditions: 37°C
T2 construct: gene CNAG_05817; full coding region, C-terminal His/V5 tag kept, pYES-DEST52 in S. cerevisiae INVSc1, membrane protein reconstituted into proteoliposomes
T2 sequence (J9VRU7 entry or part of it): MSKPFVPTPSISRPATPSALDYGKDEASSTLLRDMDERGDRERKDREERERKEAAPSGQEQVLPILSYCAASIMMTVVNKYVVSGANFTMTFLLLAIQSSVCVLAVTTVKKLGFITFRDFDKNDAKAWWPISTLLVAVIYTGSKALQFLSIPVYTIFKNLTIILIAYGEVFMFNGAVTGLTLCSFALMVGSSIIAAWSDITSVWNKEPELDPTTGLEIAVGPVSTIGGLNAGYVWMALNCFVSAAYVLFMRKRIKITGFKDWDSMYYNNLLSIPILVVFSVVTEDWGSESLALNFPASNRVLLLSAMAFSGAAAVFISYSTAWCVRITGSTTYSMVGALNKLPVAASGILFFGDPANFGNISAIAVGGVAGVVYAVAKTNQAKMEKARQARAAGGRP

[4] = antiport, preloaded with 30 mM GMP, 16-substrate mixture, 50 μM each, 10 min
[5] = antiport counter-substrate, 30 mM GMP preloaded, GDP-Man outside

Row | Molecule | Km [1] [µM] | kcat [1] [s⁻¹] | also measured
1 | Uxt2 (Cryptococcus neoformans H99) | 2.2 ± 0.5 | 0.4 | 
2 | Uxt1 (Cryptococcus neoformans H99) | 1.0 ± 0.2 | 0.9 | 
3 | Nc1nc2c(ncn2[C@@H]2O[C@H](COP(=O)(O)OP(=O)(O)O[C@H]3O[C@H](CO)[C@@H](O)[C@H](O)[C@@H]3O)[C@@H](O)[C@H]2O)c(=O)[nH]1 [GDP-Man] |  |  | uptake into reconstituted proteoliposomes, LC-MS/MS [2, 4]: Both proteins transported GDP-Man and smaller amounts of other GDP-sugars in exchange for GMP; uptake into reconstituted proteoliposomes, LC-MS/MS [3, 4]: Both proteins transported GDP-Man and smaller amounts of other GDP-sugars in exchange for GMP
4 | Nc1nc2c(ncn2[C@@H]2O[C@H](COP(=O)(O)O)[C@@H](O)[C@H]2O)c(=O)[nH]1 [GMP] |  |  | uptake into reconstituted proteoliposomes, LC-MS/MS [2, 5]: Both proteins transported GDP-Man and smaller amounts of other GDP-sugars in exchange for GMP; uptake into reconstituted proteoliposomes, LC-MS/MS [3, 5]: Both proteins transported GDP-Man and smaller amounts of other GDP-sugars in exchange for GMP
